In the supplement of paper PMC10126150:
± gives the standard deviation of the averaged measurements.

system: ATP; test: switch fluorescence ratio, 500 uM ATP over buffer (Cy3 cluster intensity, sum of 5 cycles each) (fold (ratio)); higher = stronger signal-on switching upon ATP binding; sequences stand for … in TCGTCGGCAGCGTCAGATGTGTATAAGAGACAGTTTTTTTTTTTTTTTTTTTTTTTTT…TC; conditions: aptamer strand: ATP DNA aptamer (quencher-CACCTGGGGGAGTATTGCGGAGGAAGG + anchor), 100 nM annealed; ATP concentration: 500 uM
Method in brief: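 Values give the fluorescence ratio for each switch-domain sequence, averaged from per-cluster ratios of summed target-cycle to summed buffer-cycle Cy3 intensity. The Cy3-labelled switching-strand clusters sat on a modified Illumina MiSeq flow-cell, were annealed to 100 nM quencher-labelled ATP aptamer, and were imaged in selection buffer, then after 15 min with 500 uM ATP at 22 °C. Five cycles ran with NaOH stripping and re-annealing between them, and clusters outside 100-1000 RFU were excluded.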
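Further: ATP exposure 15 min at 22 °C before imaging.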

Sequence	switch fluorescence ratio
GGTTCAGCGT	0.984 ± 0.015
GGTTCAGGGA	0.977 ± 0.0099
GGTTCAGGTG	3.38 ± 0.34
GGTTCCAAGC	1.06 ± 0.04
GGTTCGACTG	0.951 ± 0.046
GGTTCGGGTG	1.075 ± 0.0041
GGTTCGTATT	0.975 ± 0.038
GGTTCTATTT	1.03 ± 0.016
GGTTCTTCGG	0.9938 ± 0.0066
GGTTCTTTAG	1.015 ± 0.0033
GGTTGAAAAA	0.985 ± 0.053
GGTTGAAAAG	0.979 ± 0.015
GGTTGAAGAG	0.955 ± 0.011
GGTTGACCCC	0.978 ± 0.027
GGTTGACGCA	1.01 ± 0.03
GGTTGACTTG	1.01 ± 0.059
GGTTGAGGGC	1 ± 0.02
GGTTGATACG	0.959 ± 0.026
GGTTGCGGTG	0.94 ± 0.083
GGTTGGAAAT	0.99 ± 0.06
GGTTGGACAG	0.988 ± 0.011
GGTTGGAGTG	0.963 ± 0.017
GGTTGGAGTT	0.984 ± 0.0049
GGTTGGATGG	0.9995 ± 0.0007
GGTTGGGGAC	0.971 ± 0.022

Sequence	switch fluorescence ratio
GGTTGGTCTA	0.979 ± 0.028
GGTTGGTTCT	1.02 ± 0.078
GGTTGTCATG	0.967 ± 0.032
GGTTGTGAGT	0.993 ± 0.02
GGTTGTGGGG	0.998 ± 0.035
GGTTGTTTCG	0.969 ± 0.038
GGTTTAAGGT	1.01 ± 0.02
GGTTTAATTC	1.01 ± 0.012
GGTTTACCGG	0.987 ± 0.039
GGTTTAGGGC	0.992 ± 0.066
GGTTTAGTGG	1 ± 0.031
GGTTTATAAA	0.971 ± 0.051
GGTTTATGGG	0.975 ± 0.037
GGTTTATTTG	1.01 ± 0.016
GGTTTCGATA	0.96836 ± 1.5e-05
GGTTTCGTCC	1.02 ± 0.0023
GGTTTCTACA	1 ± 0.034
GGTTTCTTAG	0.98 ± 0.018
GGTTTGAAAT	1.04 ± 0.051
GGTTTGAGGA	0.971 ± 0.012
GGTTTGCGTG	0.988 ± 0.0043
GGTTTGCTGA	1.01 ± 0.043
GGTTTGGACG	0.981 ± 0.037
GGTTTGGGCA	1.02 ± 0.013
GGTTTGGTAT	0.99 ± 0.021

Sequence	switch fluorescence ratio
GGTTTGGTCA	1 ± 0.0055
GGTTTGGTTA	1 ± 0.027
GGTTTGTGGG	0.968 ± 0.013
GGTTTTAGAT	0.9977 ± 0.0072
GGTTTTATAC	1.04 ± 0.02
GGTTTTCAGT	1.03 ± 0.045
GGTTTTCCAG	0.946 ± 0.063
GGTTTTGCCA	0.995 ± 0.034
GGTTTTTTGT	0.992 ± 0.017
GTAAAAATGG	1.05 ± 0.12
GTAAAAGAAG	0.964 ± 0.02
GTAAAAGGCG	1 ± 0.024
GTAAAAGTTT	0.979 ± 0.01
GTAAAATGTT	1.03 ± 0.035
GTAAAGAGTT	0.992 ± 0.011
GTAAAGGGGA	1.03 ± 0.044
GTAAGACTAA	0.997 ± 0.011
GTAAGTAAGA	1.03 ± 0.017
GTAAGTGAGC	1.034 ± 0.0026
GTAAGTTCTG	1 ± 0.011
GTAATAGGGC	0.983 ± 0.054
GTAATAGGTC	1.013 ± 0.0088
GTAATAGTAT	1.006 ± 0.0061
GTAATCATTT	0.9667 ± 0.0093
GTAATCGGCA	1.02 ± 0.022

Sequence	switch fluorescence ratio
GTAATCTCTG	1.01 ± 0.028
GTAATCTTTA	0.982 ± 0.029
GTAATGATGG	0.994 ± 0.036
GTAATGGGGT	0.966 ± 0.029
GTAATTTAGG	0.996 ± 0.042
GTAATTTTGG	0.983 ± 0.037
GTAATTTTTT	1.02 ± 0.031
GTACACTCAT	1.04 ± 0.031
GTACATATAA	1.03 ± 0.011
GTACCCTATG	1.07 ± 0.029
GTACCTGTCT	0.99 ± 0.017
GTACGAACTT	1.32 ± 0.061
GTACTGTGTG	1.001 ± 0.0037
GTACTTCATA	1.03 ± 0.013
GTAGAAATGT	0.981 ± 0.027
GTAGCAACGG	1.59 ± 0.1
GTAGCTGGGG	0.98 ± 0.011
GTAGGACATC	1.01 ± 0.023
GTAGGGAAAG	1.009 ± 0.0087
GTAGGGATTA	0.9779 ± 0.0064
GTAGGGGGTG	1.02 ± 0.065
GTAGGGGTTC	0.982 ± 0.042
GTAGGTAAGC	1.03 ± 0.057
GTAGGTAGGT	0.99 ± 0.024
GTAGGTTTGA	0.994 ± 0.012
